According to US20090191217A1 (published 2009):

Biological target: T1, Interleukin-1 receptor type 1 (IL-1R1) on cells (human, UniProt P14778 18-569)
T1 sequence (looked up): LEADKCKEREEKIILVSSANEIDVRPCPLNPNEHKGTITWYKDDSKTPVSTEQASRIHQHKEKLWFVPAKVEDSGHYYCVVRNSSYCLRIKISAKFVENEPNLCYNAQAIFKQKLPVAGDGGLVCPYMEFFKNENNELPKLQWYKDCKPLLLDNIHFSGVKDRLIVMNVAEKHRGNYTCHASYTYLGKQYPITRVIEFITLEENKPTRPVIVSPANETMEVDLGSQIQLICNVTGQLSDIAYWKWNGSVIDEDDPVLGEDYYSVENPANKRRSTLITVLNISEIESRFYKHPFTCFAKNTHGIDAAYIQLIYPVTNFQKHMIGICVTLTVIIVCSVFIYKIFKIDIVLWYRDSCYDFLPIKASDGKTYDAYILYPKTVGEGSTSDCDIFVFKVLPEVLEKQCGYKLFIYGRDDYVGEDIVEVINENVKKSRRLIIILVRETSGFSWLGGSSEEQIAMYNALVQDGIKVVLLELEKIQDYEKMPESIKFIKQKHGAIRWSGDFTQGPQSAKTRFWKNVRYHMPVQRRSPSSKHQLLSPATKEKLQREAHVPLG
Assay: cell-based or functional assay

Binder | ND50, inhibition of IL-1-induced IL-8 release from MRC-5 cells
DOM4-130-3 (other) VL: DIQMTQSPSSLSASVGDRVTITCRASQDIYLNLDWYQQKPGKAPKLLIYGTSNLQSGVPSRFSGSGSGTDFTLTISSLQPEDFATYYCQPSFYFPYTFGQGTKVEIRR | ~30 nM
DOM4-130-46 (other) VL: DIQMTQSPSSLSASVGDRVTITCRASQDIYLNLDWYQQKPGKAPKLLINFGSELQSGVPSRFSGSGSGTDFTLTISSLQPEDFATYYCQPSFYFPYTFGQGTKVEIRR | ~1 nM
DOM4-122-23 (other) VL: DIQMTQSPSSLSASVGDRVTITCRASQWIGRELRWYQQKPGKAPMFLIYHASRLQRGVPSRFSGSGSGTDFTLTISSLQPEDFATYYCQQYHGWPLTFGQGTKVEIKR | ~1 nM
DOM4-122-6 (other) VL: DIQMTQSPSSLSASVGDRVTITCRASQWIGRELRWYQQKPGKAPMFLIYHASRLQSGVPSRFSGSGSGTDFTLTISSLQPEDFATYYCQQYHGWPLTFGQGTKVEIKR | ~10 nM
DOM4-129-1 (other) VL: DIQMTQSPSSLSASVGDRVTITCRASQNIDRELRWYQQKPGKAPMFLIYHASRLQRGVPSRFSGSGSGTDFTLTISSLQPEDFATYYCQQYHDFPLTFGQGTKVEIKR | ~10 nM
